# According to patent publication US20250313612A1 (Adimab, published 2025):
# B1: ADI-14507 (antibody, V domains shown)
# VH: QITLKESGPTLVKPTQTLTLTCTLSGFSLSTPRMGVGWIRQPPGKALEWLALIDWDDDRRYSPSLKTRLTITKDTSKNQVVLRMTDMDPVDTGTYYCVHSDVYTTGGYYLYYFDYWGQGTLVTVSS
# VL: DIQVTQSPSSLSASVGDRVTITCRASQTIPSYLNWYQHKPGKAPQLLIYAASNLRSGVPPRFRGSGSGTDFTLTVSSLQPEDFATYFCQQSYSSPYTFGQGTKLEIK
# notes: full-length IgG (yeast-expressed); also called Antibody Number 68; Ab# 68
# B2: ADI-14438 (antibody, V domains shown)
# VH: QVQLVQSGAEVKKPGASVKVSCRASGFVFTSYDINWVRQAPGQGLEWMGRMNAHTGQVTYAQKFQDKVSMTRDVSITTAYLELSRLASEDTAVYYCARPDINWGQDAFDVWGQGTMVTVSS
# VL: DIRMTQSPSTLSASIGARVTITCRASQNIGNFLAWYQQKPGKAPKLLIYKASTLDPGVPSRFSGSGSGTEFTLTITSLQPDDFATFYCQQYKSDPTFGQGTKVEIK
# notes: full-length IgG (yeast-expressed); also called Antibody Number 1; Ab# 1
# B3: ADI-14497 (antibody, V domains shown)
# VH: QITLKESGPTLVKPTQTLTLTCTFSGFSLTTRGVGVGWIRQPPGKALEFLGFIHWDDDKTYSPSLRRRLTITKDTSNNEVVLTMTNMDPVDTATYYCVHSDLYDSGGYYLYYFDYWGQGTLVTVSS
# VL: EIVMTQSPSSLSASVGDRVTITCRASQPIPSYVNWYQQRPGKAPKLLIYAASNLQSGVSSKFSGRGFGTDFTLTIDTLQPEDFATYYCQQVYTSPYTFGQGTKLEIK
# notes: full-length IgG (yeast-expressed); also called Antibody Number 58; Ab# 58
# B4: ADI-14499 (antibody, V domains shown)
# VH: QVQLVQSGPALVKPTQTLTLTCTFSGFSLTTRGVGVGWIRQTPGKALECLGFIYWDDDMNYNPSLRGRVTITRDTSKNQVVLTMTNMAPVDTGTYYCVHSDLYDSSGYYLYYFDYWGQGTLVTVSS
# VL: DIRLTQSPSSLSASVGDRVTITCRASQPIASYLNWYQQKPGKAPKLLIYAASNLQSGVPSTFSGRGSGTDFSLTISTLQPEDIATYYCQQSYTSPYTFGQGTKVEIK
# notes: full-length IgG (yeast-expressed); also called Antibody Number 60; Ab# 60
# B5: ADI-14443 (antibody, V domains shown)
# VH: QVQLVQSGTEVKKPGSSVKVSCKASGGTFGSYAVIWVRQAPGQGLEWMGHFIPVFATTNKAQKFQGRLTLSTDESTGTVYMELSSLRSEDTAVYFCATKRYCSDPSCHGLWYFDLWGRGTLVTVSS
# VL: DIQLTQSPLSLPVTPGEPASISCRSSQSLLDSDDGNTYLDWYLQKPGQSPQVLIYMLSYRASGVPDRFSGSGSGTDFTLEISRVEAEDVGVYYCMQRVEFPYTFGQGTKLEIK
# notes: full-length IgG (yeast-expressed); also called Antibody Number 6; Ab# 6
# B6: ADI-14471 (antibody, V domains shown)
# VH: QVQLVQSGAEVKKPGSSVKVSCKASGGTFGSYAVIWVRQAPGQGLEWMGHIIPVFGTINNAQKFQGRLTLSADESTGTVYMGLSSLRSDDTAVYFCATKRYCSDPSCHGLWYFDLWGRGTLVTVSS
# VL: DIRLTQSPLSLPVTPGEPASISCRSSQSLLDSDDGNTYLDWYLQKPGQSPQVLIYMLSYRASGVPDRFSGSGSGTDFTLKISRVEAEDVGVYYCMQRAEFPYTFGQGTKLEIK
# notes: full-length IgG (yeast-expressed); also called Antibody Number 34; Ab# 34
# B7: ADI-14492 (antibody, V domains shown)
# VH: EVQLVESGGGLVRPGGSLGLSCSASGFIFSNAWMTWVRQAPGKGLEWVGHIKSKVNGGTTAYGAPVKGRFTISRDDSRNTLFLQMNSLKTEDTGVYYCTTGPPYQYFDDSGYSVVDYWGQGTLVTVSS
# VL: QSVVTQPPSASGTPGQRVTISCSGSDSNIGTDYFYWYQQLPGSAPKLLIYGSNQRPSGVPDRFSGSQSGSAASLAISGLRSEDDADYYCAAWDDSLGGPVFGGGTKVTVL
# notes: full-length IgG (yeast-expressed); also called Antibody Number 53; Ab# 53
# B8: ADI-14498 (antibody, V domains shown)
# VH: EVQLVESGPTLVKPTQTLTLTCTFSGFSLTTRGMGVGWIRQPPGRSLEWLAVIYWDGDVRYSPSLKGRLTITKDTPKNQVVLTMTNMDPVDTATYYCVHSDLYDRNAYYLHYFDFWGQGTLVTVSS
# VL: DIRLTQSPSSLSASVGDRVTITCRASQIIASYLNWYQQKPGKAPNLLIFAASSLQSGVPSRFRGSGSGTDFTLTISSLQPEDFATYYCQQSYSIPYTFGQGTKLEIK
# notes: full-length IgG (yeast-expressed); also called Antibody Number 59; Ab# 59
# B9: ADI-14495 (antibody, V domains shown)
# VH: QITLKESGPTLVKPTQTLTLTCSFSGFSLTTRGVGVGWVRQPPGKALECLGFVYWDDDKRYSPSLRSRLTISEDTSKNQVVLTMTNMDPLDTATYYCVHSDLYDRGGYYLFYFDYWGQGTLVTVSS
# VL: DIVLTQSPSSLSASVGDRVTITCRASQPIASYLNWYQHKPGKAPKLLIYAASSLQSGVSSTFSGRGSGTDFTLTITALQPEDFAIYYCQQSYTFPYTFGQGTKVDIK
# notes: full-length IgG (yeast-expressed); also called Antibody Number 56; Ab# 56
# B10: ADI-14506 (antibody, V domains shown)
# VH: QVQLVQSGAEVKKPGSSVKVSCKVAGGSFSNYAIAWLRQAPGQGLEWMGGIIPAFNRAMYARKFQDRVTITAYASTTTAYLDITGLRSEDTALYYCARPAGDFGDLKWVRSPFDYWGQGTLITVSS
# VL: DIVMTQTPGTLSVSPGERATLSCRASQDVGINLAWYQQKPGQAPRLLIYGASTRATDVPAKFSGSGSGTDFTLTISSLQSEDFGVYYCQEYNDWPPQLSFGPGTKVDIK
# notes: full-length IgG (yeast-expressed); also called Antibody Number 67; Ab# 67
# B11: ADI-14510 (antibody, V domains shown)
# VH: QVQLQQWGAEVKKPGSSVKVSCKASGVALSSVAISWVRQAPGQGLEWMGGILPGFDKVRFAQEFENRATLTADTARDIAYMELSGLRSDDTAVYYCAIIDPQDCTSASCFWVNWLDPWGQGTLVTVSS
# VL: ETTLTQSPGTLTVSPGERATLSCRASQSIIRNNLAWYQQKPGQAPRLLIYAASNRATDIPDRFSGSGSGTDFTLTISRLEAQDFAVYFCQQYGTSPITFGQGTKVEIK
# notes: full-length IgG (yeast-expressed); also called Antibody Number 71; Ab# 71
# B12: ADI-14504 (antibody, V domains shown)
# VH: EVQLVESGGGLVQPGGSLRLSCAASGFPFSRYNMNWVRQAPGKGLEWVSYISSGSRSIYYADSVKGRFTISRDNAKNSLYLQMNSLRAEDTAVYYCARDLSGSPAYSGSWVWGQGTLVTVSS
# VL: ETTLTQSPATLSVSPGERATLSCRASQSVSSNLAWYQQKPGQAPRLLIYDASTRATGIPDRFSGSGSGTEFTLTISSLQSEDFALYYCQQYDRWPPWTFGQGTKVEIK
# notes: full-length IgG (yeast-expressed); also called Antibody Number 65; Ab# 65
# B13: ADI-14491 (antibody, V domains shown)
# VH: EVQLVESGGGVVQPGRSLRLSCAASGFTFSDHAMYWVRQAPGKGLEWVALISFDGRNIYYADSVKGRFTISRDNSKNTLYLQMNSLRAEDTAVYYCARDQWLVPDYWGQGTLVTVSS
# VL: QSVLTQPASVSGSPGQSITISCTGTSSDVGGYNYVSWYQQHPGNAPKLMIYEVSKRPSGVPDRFSGFKSGNTASLTVSGLQAEDEADYYCSSYAGSNSVFGTGTKVTVL
# notes: full-length IgG (yeast-expressed); also called Antibody Number 52; Ab# 52
# B14: ADI-14461 (antibody, V domains shown)
# VH: EVQLVESGGGVVQPGRSLRLSCAASGFTFSDHAMYWVRQAPGKGLEWVALISFDGRNIYYADSVKGRFTISRDNSKNTLYLQMNSLRAEDTAVYYCARDQWLVPDYWGQGTLVTVSS
# VL: LPVLTQPASVSGSPGQSITISCTGTSSDVGGYNYVSWYQQHPGNAPKLMIYEVSKRPSGVPDRFSGFKSGNTASLTVSGLQAEDEADYYCSSYAGSNSVFGTGTKLTVL
# notes: full-length IgG (yeast-expressed); also called Antibody Number 24; Ab# 24
# B15: ADI-14525 (antibody, V domains shown)
# VH: EVQLLESGGGVVQPGRSLRLSCTASGFTFSDHAMYWVRQAPGKGLEWVALISFDGRNIYYADSVKGRFTISRDNSKNTLYLQMNSLRAEDTAVYYCARDQWLVPDYWGQGTLVTVSS
# VL: QSVLIQPASVSGSPGQSITISCTGTSSDVGGYNYVSWYQQHPGNAPKLMIYEVSKRPSGVPDRFSGFKSGNTASLTVSGLQAEDEADYYCSSYAGSNSVFGTGTQLTVL
# notes: full-length IgG (yeast-expressed); also called Antibody Number 85; Ab# 85
# B16: ADI-14494 (antibody, V domains shown)
# VH: EVQLVESGGGVVQPGRSLRLSCAASGFTFSDHAMYWVRQAPGKGLEWVALISFDGRNIYYADSVKGRFTISRDNSKNTLYLQMNSLRAEDTAVYYCARDQWLVPDYWGQGTLVTVSS
# VL: QSALTQPASVSGSPGQSITISCTGTSSDVGGYNYVSWYQQHPGNAPKLMIYEVSKRPSGVPDRFSGFKSGNTASLTVSGLQAEDEADYYCSSYAGSNSVFGTGTKVTVL
# notes: full-length IgG (yeast-expressed); also called Antibody Number 55; Ab# 55
# B17: ADI-14500 (antibody, V domains shown)
# VH: EVQLLESGGGLVKPGGSLRLSCAASGFIFNNAWMTWVRQAPGRGLEWVGRIKTNADGGTADYSTPVKGRFAISRDDSTNTLYLQMNSLKTEDTAVYYCTTGPPYKYSDSTGYSVVDYWGQGTLVTVSS
# VL: SYELTQPPSASGTPGQRVTISCSGSSSNIGSNYVYWYQQLPGTAPKLLIYSTNQRPSGVPDRFSGSQSGTSASLAISGLRSEDEADYYCAAWDDRLSGPVFGGGTQLTVL
# notes: full-length IgG (yeast-expressed); also called Antibody Number 61; Ab# 61
# What was measured:
# [1] = biological target: T1, RSV F ectodomain stabilized in the postfusion conformation (F ΔFP), subtype A (Respiratory syncytial virus subtype A, UniProt P03420 26-109; P03420 147-524); assay: BLI, IgG on AHQ sensor, 100 nM antigen
# T1 construct: extracellular domain; trimer; furin-cleaved; also called Postfusion subtype A
# [2] = biological target: T2, RSV F ectodomain stabilized in the postfusion conformation (F ΔFP), subtype B (Respiratory syncytial virus subtype B, UniProt P13843 26-109; P13843 147-524); assay: BLI, IgG on AHQ sensor, 100 nM antigen
# T2 construct: extracellular domain; trimer; also called Postfusion subtype B; postF subtype B
# [3] = biological target: RSV F protein of recombinant mKate-RSV, subtype A (strain A2) (Respiratory syncytial virus subtype A …, UniProt P03420 26-574); assay: cell-based or functional assay
# [4] = biological target: RSV F protein of recombinant mKate-RSV, subtype B (18537) (Respiratory syncytial virus subtype B …, UniProt P13843 26-574); assay: cell-based or functional assay
Binder,Kd [1] [pM],Kd [2] [pM],Neut IC50 subtype A [3] [µg/mL],Neut IC50 subtype B [4] [µg/mL]
B1,266,413,0.319,0.173
B2,11800,8290,0.289,0.237
B3,358,4820,0.115,0.116
B4,415,2990,> 10,> 10
B5,190,137,0.047,0.063
B6,212,150,0.096,0.116
B7,166,111,0.204,0.681
B8,412,2270,> 10,> 10
B9,367,1710,0.864,17.4
B10,13100,24500,> 10,6.25
B11,783,619,> 10,> 10
B12,583,520,2.81,13.4
B13,238,158,0.105,0.102
B14,231,156,0.129,0.152
B15,230,149,0.135,0.108
B16,240,155,0.084,0.089
B17,714,127,0.415,0.552
